Data set [1] deals with the molecule itself. The data set can be described thus: SEC. (Size exclusion chromatography separates by hydrodynamic size, large species first.)
Data set [2] deals with the molecule itself. The data set can be described thus: SEC-MALS.

B1: caseinolytic protease ClpP from Thermus thermophilus (TtClpP) (enzyme)
chain: not shown
For the protein B1, the figures for the “stoichiometry N” value in data set [1] and in data set [2] were 7 and 14, respectively.

For the origin of these results see paper PMC6726451 (Science Advances, 2019).
